{
  "source": "paper PMC6152312",
  "about": "“Structural Insight into the Recognition of r(UAG) by Musashi-1 RBD2, and Construction of a Model of Musashi-1 RBD1-2 Bound to the Minimum Target RNA”",
  "molecular_target": "Msi1(109-200) (RBD2+) (mouse, UniProt Q61474 109-200)",
  "sequence (Q61474 109-200)": "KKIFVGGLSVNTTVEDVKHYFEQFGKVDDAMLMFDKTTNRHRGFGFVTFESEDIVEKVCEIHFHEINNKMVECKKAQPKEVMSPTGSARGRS",
  "test": "NMR titration (15N-1H HSQC); 1:1 stoichiometry, slow exchange; 20 mM MES pH 6.0, 100 mM NaCl, 1 mM DTT, 5% D2O, 298 K (NMR sample; titration at 80 uM protein)",
  "details": "protein: recombinant; tags: N-terminal His6 cleaved by thrombin; extra GSHM at N-terminus; single strand",
  "data": [
    {"binder": "GUAGU (ssRNA)", "note": "[r(GUAGU)]", "values": [
      {"measurement": "binding result", "value": "binds"}
    ]}
  ]
}
